Source: PMC7804152, “Structural basis for the multi-activity factor Rad5 in replication stress tolerance”

Experiments:
ScHIRAN = target: T1, ScHIRAN (Saccharomyces cerevisiae, UniProt P32849 171-375); assay: EMSA; no preference for free 3'-OH; FP: 20 mM Tris pH 7.5, 50 mM (dsDNA, KlHIRAN) or 70 mM (ssDNA) NaCl, 2 mM MgCl2, 1 nM DNA, room temp; EMSA: 20 mM Tris pH 7.5, 100 mM KCl, 0.5 mM DTT, 3% glycerol, 2 mM MgCl2, 250 ug/mL BSA, 4 C; pull-down: 20 mM Tris pH 7.5, 50 mM NaCl, 4 C; conditions: protein: recombinant; tags: intein-CBD cleaved off; label: 3'-FAM
T1 sequence: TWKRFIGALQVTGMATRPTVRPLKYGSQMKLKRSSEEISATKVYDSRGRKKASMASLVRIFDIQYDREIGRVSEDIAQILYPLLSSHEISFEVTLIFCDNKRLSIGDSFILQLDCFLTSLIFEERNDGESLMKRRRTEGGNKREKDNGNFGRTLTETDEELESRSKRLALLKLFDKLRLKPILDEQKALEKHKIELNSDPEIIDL

KlHIRAN = target: T2, KlHIRAN (Kluyveromyces lactis, UniProt Q6CJM4 174-341); assay: as above; conditions: protein: recombinant; tags: intein-CBD cleaved off; label: 3'-FAM
T2 sequence: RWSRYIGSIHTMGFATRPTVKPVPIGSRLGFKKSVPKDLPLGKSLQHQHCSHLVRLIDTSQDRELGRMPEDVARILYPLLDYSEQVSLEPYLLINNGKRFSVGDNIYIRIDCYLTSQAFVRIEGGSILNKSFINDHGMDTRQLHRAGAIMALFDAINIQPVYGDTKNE

ScRad5 [1] = target: T3, ScRad5 (Saccharomyces cerevisiae, UniProt P32849 1-1169); assay: pull-down; similar to 5'-biotin; FP: 20 mM Tris pH 7.5, 50 mM (dsDNA, KlHIRAN) or 70 mM (ssDNA) NaCl, 2 mM MgCl2, 1 nM DNA, room temp; EMSA: 20 mM Tris pH 7.5, 100 mM KCl, 0.5 mM DTT, 3% glycerol, 2 mM MgCl2, 250 ug/mL BSA, 4 C; pull-down: 20 mM Tris pH 7.5, 50 mM NaCl, 4 C; conditions: protein: recombinant; tags: N-terminal FLAG; label: 3'-biotin
T3 sequence: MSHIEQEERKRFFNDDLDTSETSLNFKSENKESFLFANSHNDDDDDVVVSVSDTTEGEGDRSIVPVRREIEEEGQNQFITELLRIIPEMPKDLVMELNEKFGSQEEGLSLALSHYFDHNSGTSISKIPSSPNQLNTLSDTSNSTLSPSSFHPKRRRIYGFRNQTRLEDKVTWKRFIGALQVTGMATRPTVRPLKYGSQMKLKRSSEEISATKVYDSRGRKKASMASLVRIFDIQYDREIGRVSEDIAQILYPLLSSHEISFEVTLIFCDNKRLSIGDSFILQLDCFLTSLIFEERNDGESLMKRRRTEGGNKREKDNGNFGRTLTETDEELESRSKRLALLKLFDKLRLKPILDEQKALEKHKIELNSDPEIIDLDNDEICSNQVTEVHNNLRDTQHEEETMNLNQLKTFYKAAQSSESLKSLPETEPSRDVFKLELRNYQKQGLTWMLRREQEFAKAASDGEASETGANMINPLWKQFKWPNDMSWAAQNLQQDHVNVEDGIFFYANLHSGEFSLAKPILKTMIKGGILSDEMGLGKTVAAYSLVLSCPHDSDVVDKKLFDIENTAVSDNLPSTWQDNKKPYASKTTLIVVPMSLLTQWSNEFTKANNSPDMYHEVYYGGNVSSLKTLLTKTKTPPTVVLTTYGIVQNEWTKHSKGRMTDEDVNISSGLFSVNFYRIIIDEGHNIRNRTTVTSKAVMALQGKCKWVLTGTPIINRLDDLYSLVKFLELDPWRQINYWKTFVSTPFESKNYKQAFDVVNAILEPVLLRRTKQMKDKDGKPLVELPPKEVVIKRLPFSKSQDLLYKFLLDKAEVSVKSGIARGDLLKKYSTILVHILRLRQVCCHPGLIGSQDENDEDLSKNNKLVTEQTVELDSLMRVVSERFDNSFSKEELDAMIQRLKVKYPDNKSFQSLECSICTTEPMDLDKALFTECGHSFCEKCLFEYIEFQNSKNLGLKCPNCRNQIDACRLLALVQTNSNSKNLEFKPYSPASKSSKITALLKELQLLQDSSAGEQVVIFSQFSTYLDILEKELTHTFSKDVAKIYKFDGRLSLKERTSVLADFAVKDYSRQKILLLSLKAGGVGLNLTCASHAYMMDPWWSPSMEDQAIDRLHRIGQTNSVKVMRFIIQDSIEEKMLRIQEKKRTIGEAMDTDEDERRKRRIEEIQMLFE

HLTF [2] = target: T4, HLTF (Homo sapiens, UniProt Q14527 25-1009); assay: pull-down; lower salt; FP: 20 mM Tris pH 7.5, 50 mM (dsDNA, KlHIRAN) or 70 mM (ssDNA) NaCl, 2 mM MgCl2, 1 nM DNA, room temp; EMSA: 20 mM Tris pH 7.5, 100 mM KCl, 0.5 mM DTT, 3% glycerol, 2 mM MgCl2, 250 ug/mL BSA, 4 C; pull-down: 20 mM Tris pH 7.5, 50 mM NaCl, 4 C; conditions: protein: recombinant; tags: His (pET28a); label: 3'-biotin
T4 sequence: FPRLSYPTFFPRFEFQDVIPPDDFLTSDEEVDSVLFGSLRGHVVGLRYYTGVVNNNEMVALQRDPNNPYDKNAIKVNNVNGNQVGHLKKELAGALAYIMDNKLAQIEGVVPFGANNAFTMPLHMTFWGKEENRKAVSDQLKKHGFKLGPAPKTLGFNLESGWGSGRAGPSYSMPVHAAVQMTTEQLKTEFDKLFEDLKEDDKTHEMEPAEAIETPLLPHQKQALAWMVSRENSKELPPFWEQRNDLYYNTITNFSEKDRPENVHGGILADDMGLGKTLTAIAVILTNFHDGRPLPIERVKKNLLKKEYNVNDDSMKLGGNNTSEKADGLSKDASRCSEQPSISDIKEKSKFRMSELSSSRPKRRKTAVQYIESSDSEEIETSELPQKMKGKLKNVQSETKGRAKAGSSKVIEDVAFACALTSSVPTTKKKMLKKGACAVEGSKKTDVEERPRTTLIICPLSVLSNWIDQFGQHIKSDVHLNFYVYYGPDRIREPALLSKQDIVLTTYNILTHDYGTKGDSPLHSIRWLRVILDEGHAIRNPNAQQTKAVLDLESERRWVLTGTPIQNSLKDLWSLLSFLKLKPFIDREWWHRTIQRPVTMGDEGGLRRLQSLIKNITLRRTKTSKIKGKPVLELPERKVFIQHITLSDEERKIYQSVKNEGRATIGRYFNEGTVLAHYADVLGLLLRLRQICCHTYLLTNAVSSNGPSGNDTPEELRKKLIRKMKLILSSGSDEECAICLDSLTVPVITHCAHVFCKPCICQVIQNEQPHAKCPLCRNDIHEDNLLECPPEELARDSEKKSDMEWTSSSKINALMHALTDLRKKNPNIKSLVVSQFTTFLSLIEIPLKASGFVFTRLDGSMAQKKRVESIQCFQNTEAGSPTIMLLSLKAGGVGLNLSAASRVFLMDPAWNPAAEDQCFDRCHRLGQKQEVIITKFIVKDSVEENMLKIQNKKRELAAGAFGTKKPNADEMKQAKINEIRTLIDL

KlRad5 [3] = target: T5, KlRad5 (Kluyveromyces lactis, UniProt Q6CJM4 163-1114); assay: pull-down; similar to 5'-biotin at all salt concentrations; FP: 20 mM Tris pH 7.5, 50 mM (dsDNA, KlHIRAN) or 70 mM (ssDNA) NaCl, 2 mM MgCl2, 1 nM DNA, room temp; EMSA: 20 mM Tris pH 7.5, 100 mM KCl, 0.5 mM DTT, 3% glycerol, 2 mM MgCl2, 250 ug/mL BSA, 4 C; pull-down: 20 mM Tris pH 7.5, 50 mM NaCl, 4 C; conditions: protein: recombinant; tags: none; label: 3'-biotin
T5 sequence: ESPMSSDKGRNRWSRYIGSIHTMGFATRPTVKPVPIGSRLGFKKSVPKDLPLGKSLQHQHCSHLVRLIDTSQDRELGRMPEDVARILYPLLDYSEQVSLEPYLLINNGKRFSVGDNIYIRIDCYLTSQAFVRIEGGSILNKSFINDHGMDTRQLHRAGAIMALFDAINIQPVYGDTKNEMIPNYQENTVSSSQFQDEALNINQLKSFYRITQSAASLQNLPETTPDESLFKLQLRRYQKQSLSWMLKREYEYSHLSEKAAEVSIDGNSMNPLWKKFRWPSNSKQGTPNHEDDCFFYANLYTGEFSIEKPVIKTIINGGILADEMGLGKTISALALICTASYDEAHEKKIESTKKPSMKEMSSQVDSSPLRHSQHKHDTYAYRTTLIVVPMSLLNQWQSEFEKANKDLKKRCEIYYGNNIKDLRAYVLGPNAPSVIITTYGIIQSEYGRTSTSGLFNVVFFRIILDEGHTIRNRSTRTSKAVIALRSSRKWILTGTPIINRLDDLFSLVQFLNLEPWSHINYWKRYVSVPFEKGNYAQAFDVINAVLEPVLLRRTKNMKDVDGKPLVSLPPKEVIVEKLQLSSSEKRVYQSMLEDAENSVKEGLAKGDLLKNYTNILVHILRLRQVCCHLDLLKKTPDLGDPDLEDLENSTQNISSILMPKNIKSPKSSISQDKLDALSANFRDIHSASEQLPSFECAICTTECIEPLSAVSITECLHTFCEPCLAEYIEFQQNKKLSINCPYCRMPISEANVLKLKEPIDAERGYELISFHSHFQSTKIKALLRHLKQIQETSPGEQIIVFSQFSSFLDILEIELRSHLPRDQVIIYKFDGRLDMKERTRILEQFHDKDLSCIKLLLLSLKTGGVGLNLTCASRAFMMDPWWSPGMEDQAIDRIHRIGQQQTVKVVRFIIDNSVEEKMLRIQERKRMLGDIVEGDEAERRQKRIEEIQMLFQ

KlRad5 [4] = target: T5, KlRad5; assay: pull-down; suppressed by SSB; all salt concentrations tested; FP: 20 mM Tris pH 7.5, 50 mM (dsDNA, KlHIRAN) or 70 mM (ssDNA) NaCl, 2 mM MgCl2, 1 nM DNA, room temp; EMSA: 20 mM Tris pH 7.5, 100 mM KCl, 0.5 mM DTT, 3% glycerol, 2 mM MgCl2, 250 ug/mL BSA, 4 C; pull-down: 20 mM Tris pH 7.5, 50 mM NaCl, 4 C; conditions: protein: recombinant; tags: none; label: 5'-biotin
ScRad5 [5] = target: T3, ScRad5; assay: pull-down; FP: 20 mM Tris pH 7.5, 50 mM (dsDNA, KlHIRAN) or 70 mM (ssDNA) NaCl, 2 mM MgCl2, 1 nM DNA, room temp; EMSA: 20 mM Tris pH 7.5, 100 mM KCl, 0.5 mM DTT, 3% glycerol, 2 mM MgCl2, 250 ug/mL BSA, 4 C; pull-down: 20 mM Tris pH 7.5, 50 mM NaCl, 4 C; conditions: protein: recombinant; tags: N-terminal FLAG; label: 5'-biotin
HLTF [6] = target: T4, HLTF; assay: pull-down; 100 mM salt; FP: 20 mM Tris pH 7.5, 50 mM (dsDNA, KlHIRAN) or 70 mM (ssDNA) NaCl, 2 mM MgCl2, 1 nM DNA, room temp; EMSA: 20 mM Tris pH 7.5, 100 mM KCl, 0.5 mM DTT, 3% glycerol, 2 mM MgCl2, 250 ug/mL BSA, 4 C; pull-down: 20 mM Tris pH 7.5, 50 mM NaCl, 4 C; conditions: protein: recombinant; tags: His (pET28a); label: 5'-biotin

B1: dT10, 3'-FAM (ssDNA)
DNA: TTTTTTTTTT
B1: binds (ScHIRAN); binds (KlHIRAN).

B2: dT25, 3'-biotin (ssDNA)
DNA: TTTTTTTTTTTTTTTTTTTTTTTTT
B2: binds (ScRad5 [1]); binds (HLTF [2]); binds (KlRad5 [3]).

B3: dT25, 5'-biotin (ssDNA)
DNA: TTTTTTTTTTTTTTTTTTTTTTTTT
B3: binds (KlRad5 [4]); binds (ScRad5 [5]); binds (HLTF [6]).
